Results on 22 molecules are retold here after publication PMC8669144, “Imaging of Glioblastoma Tumor-Associated Myeloid Cells Using Nanobodies Targeting Signal Regulatory Protein Alpha” (Frontiers in Immunology, 2021).

Residue numbers refer to the chain shown, from its start. Where two headings read alike, the source gives them in different places.

For test [1], the target named is T1, recombinant ligand binding domain of mouse SIRPα (mSIRPα) (Mus musculus, strain  …, UniProt P97797).
Test [2] has as its target T2, recombinant ligand binding domain of mouse SIRPα (mSIRPα) (mouse).
T2 chain: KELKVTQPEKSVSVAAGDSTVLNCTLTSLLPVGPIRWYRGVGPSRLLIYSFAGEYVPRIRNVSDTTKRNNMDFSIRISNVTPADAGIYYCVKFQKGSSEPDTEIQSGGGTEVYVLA
The test can be described thus: SPR. (SPR reads the build-up and loss of mass on a sensor chip optically.)

Test [3] has as its target T2, recombinant ligand binding domain of …. Kind of test: SPR.
In test [4] the target is T1, recombinant ligand binding domain of …. The test can be described thus: SPR; Biacore T200; recombinant antigen immobilised by amine coupling on a CM5 chip; nanobodies injected in 2-fold dilutions from 500 to 1.95 nM; 25°C; HBS (20 mM HEPES pH 7.4, 150 mM NaCl, 0.005% Tween-20, 3.4 mM EDTA); 1:1 binding model. The following applies: both partners purified.
Test [5] has as its target T3, mouse SIRPα natively expressed on RAW 264.7 macrophages (Mus musculus, endogenous in RAW 264.7 …, UniProt P97797).
T3 construct: also called native murine SIRPα; cell-membrane mSIRPα; source: endogenous, on RAW 264.7 cells
The test can be described thus: flow cytometry on cells; 1 µg purified nanobody with 2 x 10^5 RAW 264.7 cells, 4°C, 1 h; detected with AF488 anti-HA antibody; threshold triple ΔMFI of the non-targeting BabA Nb19. The settings on record: one partner purified. (In general: Flow cytometry measures light scatter and fluorescence of single cells or particles in a stream.)

The target of test [6] is T2, recombinant ligand binding domain of …. The test can be described thus: SPR.
For test [7] the target is unchanged. Kind of test: SPR.
The target in test [8] is T3, mouse SIRPα natively expressed on RAW …. The test can be described thus: radioligand binding; 99mTc-labeled nanobodies at 2, 20 and 200 nM on adherent RAW 264.7 cells, 1 h, 4°C; aspecific binding with 100x molar excess of unlabeled Nb. The settings on record: one partner purified.

The term koff denotes a measure of how fast the partners let go of each other. One may read the Kd as the constant that tells how readily two partners part at equilibrium.

T1 sequence (P97797 whole entry, looked up, the tested form may be a part): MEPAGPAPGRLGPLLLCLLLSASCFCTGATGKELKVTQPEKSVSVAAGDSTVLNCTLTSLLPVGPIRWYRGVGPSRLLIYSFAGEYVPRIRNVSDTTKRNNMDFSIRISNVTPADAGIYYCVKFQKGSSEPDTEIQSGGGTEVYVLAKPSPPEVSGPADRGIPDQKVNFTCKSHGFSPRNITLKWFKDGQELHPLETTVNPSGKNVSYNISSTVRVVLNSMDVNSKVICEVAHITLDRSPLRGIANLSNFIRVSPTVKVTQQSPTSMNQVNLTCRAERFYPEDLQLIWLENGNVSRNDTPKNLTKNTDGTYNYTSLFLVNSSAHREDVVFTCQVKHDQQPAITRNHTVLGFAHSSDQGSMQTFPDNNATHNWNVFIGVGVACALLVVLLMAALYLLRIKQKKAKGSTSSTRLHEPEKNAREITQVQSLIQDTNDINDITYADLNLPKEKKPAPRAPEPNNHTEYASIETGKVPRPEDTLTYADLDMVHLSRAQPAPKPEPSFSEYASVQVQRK

B1: Nb 92 (VHH)
VHH: QVQLQESGGGSVQAGGSLRLSCAASGYISSTSYVGWFRQAPGKEREKVAEARSGGDYTWYADSVKGRFTISQDNAKNTVYLQMNSLKPEDTAIYYCAAGEFGGPYNNWGQGTQVTVSS
For the molecule B1, the binding result in test [1] was “binds”.

B2: Nb 1 (VHH)
VHH: QVQLQESGGGSVQAGGSLRLSCSASGHMYGSVIGWFRQAPGKEREGVAAIYTYDGSEYYADSVKGRFTVSQDTQDNAKNTVYLQMSSLNVEDTAMYYCAVGFPLGRLTTVRVLASNEYKYGTQVTVSS
For B2, the binding result in test [1] is listed as “binds”.

B3: Nb 35 (VHH)
VHH: QVQLQESGGGSVQAGGSLRLSCAASGYSYSSTCMAWFRQVPGKEREGVASINNSGTATYYADSVKGRFTISRDNAKNTLYLLMDNLKPEDTAIYYCAASLRRGQDCLGAIDYWGQGTQVTVSS
As for B3, the binding result in test [1] is listed as “binds”.

B4: Nb 12 (VHH)
VHH: QVQLQESGGGSVQAGGSVKLSCATSGLTYSAYCMGWFRQAPGKGRETVAQINLGDGDTYYADSVKGRFTISLDNARNTVYLQMNSLKPEDTAIYYCAATYSSRCASFGYWGQGTQVTVSS
Take B4: the binding result in test [1] is listed as “binds”.

B5: Nb 42 (VHH)
VHH: QVQLQESGGGSVQAGGSLRLSCAASGFTYSNYCMAWFRQAPGKERESVAQINNNDGDTYYAASVKGRFTISQDNAKNPVYLQMDSLKPEDTAMYYCAASDSRCLEYKYWGQGTQVTVSS
B5: the binding result in test [1] was “binds”.

B6: Nb 25 (VHH)
VHH: QVQLQESGGGSVQAGGSLRLSCAASGHSFTLDCMGWFRQAPGKERESVAEINMYSGNTYYADSVKGRFTISRDSAKSTVNLQMNSLKPEDTAIYFCAAAPTCARWDYRGQGTQVTVSS
As for B6, the binding result in test [1] was “binds”.

B7: anti-mSIRPα nanobody Nb89 as used in SPR and epitope binning (VHH)
VHH: QVQLQESGGGLVQPGGSLRLSCAASGFAFSRNSMRWVRQAPGKGLEWVSSISSDGKYTYYTDSVKGRFAISRDNANNTLYLQMNSLKSEDTALYYCSTGGAPASQGTQVTVSS
notes: source: E. coli WK6, periplasmic extraction, purified (IMAC, SEC)
Turning to B7, in test [2], the koff came to 0.0087 s⁻¹. The Kd in test [3] was found to be 6.9 nM. The binding result in test [4] was “binds”.

B8: anti-mSIRPα nanobody Nb89, HA- and His6-tagged (pMECS) (VHH)
VHH: B7 VHH
notes: also called clone 89; source: E. coli WK6, periplasmic extraction, purified (IMAC, SEC)
B8: in test [5], the binding result is recorded as “binds”.

B9: bivalent anti-SIRPα Nb15 (pHEN25 construct, dimerised through a cysteine) (VHH)
VHH: EVQLQESGGGSVQAGGSLRLSCATSGLTYSAYCMGWFRQAPGKGRETVAQINLGDGDTYYADSVKGRFAISQDNAKNTVHLLMNGLKPEDTAIYYCAGSDHMCAKWHYWGQGTQVTVSS
modifications: 99mTc tricarbonyl at the His6-tag (in the radioligand binding assay only)
Turning to B9, the Kd in test [6] was 57.4 nM. In test [7], the koff came out at 0.00733 s⁻¹.

B10: bivalent anti-SIRPα Nb15 (pHEN25 construct, dimerised through a cysteine) (VHH)
VHH: B9 VHH
notes: as the VHH of m7 (Nb15); fourteen amino acid long linker and a cysteine after the His6 tag (pHEN25); The cysteine allows dimerization; The order of His6 tag, linker and cysteine is worded loosely; also called bivalent Nb15; bivalent construct of Nb15; source: E. coli WK6 (pHEN25), periplasmic extraction, purified (IMAC, SEC); not shown: His6, C-terminal, kept
Take B10: the binding result in test [4] and in test [8] was “binds” each time.

B11: Nb 26 (VHH)
VHH: QVQLQESGGGSVQAGGSLRLSCATSGLTYTAYCMGWFRQAPGKGRETVAQINLGDGDTYYADSVKGRFAISQDNAKNTVYLLMNSLQPEDTAIYYCATTDGRCQKWQYWGQGTQVTVSS
For B11, the binding result in test [1] is “binds”.

B12: anti-mSIRPα nanobody Nb15, HA- and His6-tagged (pMECS) (VHH)
VHH: B9 VHH with E1Q
notes: An alpaca and two dromedaries were immunised; also called clone 15; source: E. coli WK6, periplasmic extraction, purified (IMAC, SEC)
Consider B12, for which the binding result in test [5] is recorded as “binds”.

B13: monovalent anti-mSIRPα nanobody Nb15, His6-tagged (VHH)
VHH: B9 VHH with E1Q
notes: both carry a C-terminal His6; also called monovalent Nb15; anti-SIRPα Nb15; source: E. coli WK6, periplasmic extraction, purified (IMAC, SEC); not shown: His6, C-terminal, kept
Consider B13, for which the binding result in test [4] and in test [8] was “binds” in each case.

B14: monovalent anti-mSIRPα nanobody Nb15, His6-tagged (VHH)
VHH: B9 VHH with E1Q
modifications: 99mTc tricarbonyl at the His6-tag (in the radioligand binding assay only)
Take B14: the Kd in test [6] is 109 nM; in test [3], 49.4 nM. The koff in test [2] was found to be 0.00809 s⁻¹.

B15: Nb 52 (VHH)
VHH: QVQLQESGGGSVQAGGSLRLSCAASGFTYSNYCMAWLRQAPGKERESVAQININDGDTYYAASVKGRFTISQDNAKNTVYLMMNSLKPEDTAIYYCAATGYGCQGYNAWGQGTQVTVSS
Consider B15, for which the binding result in test [1] is “binds”.

B16: Nb 53 (VHH)
VHH: QVQLQESGGGSVQAGGSLRLSCAASGYTYSDYCMGWFRQAPGKEREVVAEINIVDGDTYYADSVKGRFTISQDNAKNTVYLRMNSLKPDDTAIYVCAATGRRCQGYNSWGQGTQVTVSS
B16: the binding result in test [1] is “binds”.

B17: Nb 3 (VHH)
VHH: QVQLQESGGGSVQAGGSLRLSCAAFGFTYSNYCVTWFRQAPGKERERVASIDRSNGDTLYTESVKGRFTISQDNAKNTVSLVMNSLKPEDTAIYYCAATDRYCADWRTWGQGTQVTVSS
On to B17, for which the binding result in test [1] is recorded as “binds”.

B18: anti-mSIRPα nanobody Nb54 as used in SPR and epitope binning (VHH)
VHH: QVQLQESGGGSVQAGGSLRLSCSASGHMYGSVIGWFRQAPGKERVGVAAIYTYAGSEYYADSVKGRFTVSQDTQDNAKNTVYLQMSSLNVEDTAMYYCAVGFPLGRLTTVRTLASNEYKYWGQGTQVTVSS
notes: as for B7
As for B18, in test [2], the koff came to 0.221 s⁻¹. Also, in test [3], the Kd amounted to 354 nM. For the same molecule, the binding result in test [4] was “binds”.

B19: anti-mSIRPα nanobody Nb54, HA- and His6-tagged (pMECS) (VHH)
VHH: B18 VHH
notes: also called clone 54; source: E. coli WK6, periplasmic extraction, purified (IMAC, SEC)
B19: the binding result in test [5] is reported as “binds”.

B20: Nb 33 (VHH)
VHH: QVQLQESGGGLVQPGGSLRLSCAASGFTFSSYFMSWVRQAPGKGLEWVSGINSDGSMTYYLDSVKGRFTMSRDNAKNTLYLEMNSLKSEDTALYYCALRGVFSDYALHSQGTQVTVSS
With B20, the binding result in test [1] was “binds”.

B21: Nb 75 (VHH)
VHH: B20 VHH with G16D, G26E, T28A, S53T, L61S, M70I, E82Q, A97V, H108Q
B21: the binding result in test [1] is reported as “binds”.

B22: Nb 47 (VHH)
VHH: QVQLQESGGGSVQAGGSLRLSCAASGFTYSLYCMGWFRQAPGKEREKVAEMDKSSGDTDYADSVKGRFTISQDNAKNTVYLMMNSLKPEDTAIYYCAATGYRCQGYNAWGQGTQVTVSS
As for B22, the binding result in test [1] was “binds”.
